Measurements as given in publication PMC3897721, “Structure of Utp21 Tandem WD Domain Provides Insight into the Organization of the UTPB Complex Involved in Ribosome Synthesis” (PLoS ONE, 2014).

B1: His6-Smt3-Utp18 100–139 (domain or fragment, yeast (S. cerevisiae), UniProt P40362 100-139, looked up)
chain: EDTMDVDDEDDSSSDDYSEDSEEAAWIDSDDEKIKVPILV
notes: Utp18, yeast (S. cerevisiae), residues 100–139; source: expressed from pET28a, purified (HisTrap and Q chromatography); not shown: His6, N-terminal, kept; Smt3, N-terminal, kept
B2: His6-Smt3-Utp18 100–190 (domain or fragment, yeast (S. cerevisiae), UniProt P40362 100-190, looked up)
chain: EDTMDVDDEDDSSSDDYSEDSEEAAWIDSDDEKIKVPILVTNKTKKLRTSYNESKINGVHYINRLRSQFEKIYPRPKWVDDESDSELDDEE
notes: Utp18, yeast (S. cerevisiae), residues 100–190; source: expressed from pET28a, purified (HisTrap and Q chromatography); not shown: His6, N-terminal, kept; Smt3, N-terminal, kept
B3: His6-Smt3-Utp18 139–190 (domain or fragment, yeast (S. cerevisiae), UniProt P40362 139-190, looked up)
chain: VTNKTKKLRTSYNESKINGVHYINRLRSQFEKIYPRPKWVDDESDSELDDEE
notes: Utp18, yeast (S. cerevisiae), residues 139–190; source: expressed from pET28a, purified (HisTrap and Q chromatography); not shown: His6, N-terminal, kept; Smt3, N-terminal, kept

Molecular target: T1, Utp21 1–684 (tandem WD domain, GST-tag cleaved) (yeast (S. cerevisiae), UniProt Q06078 1-684)
T1 construct: The methods say only 'purified as described above' for the protein of the pull-down; also called tandem WD domain of Utp21; source: E. coli BL21(DE3), purified (Glutathione Sepharose, on-bead PreScission cleavage, Superdex 200); not shown: GST, N-terminal, cleaved
T1 sequence (looked up): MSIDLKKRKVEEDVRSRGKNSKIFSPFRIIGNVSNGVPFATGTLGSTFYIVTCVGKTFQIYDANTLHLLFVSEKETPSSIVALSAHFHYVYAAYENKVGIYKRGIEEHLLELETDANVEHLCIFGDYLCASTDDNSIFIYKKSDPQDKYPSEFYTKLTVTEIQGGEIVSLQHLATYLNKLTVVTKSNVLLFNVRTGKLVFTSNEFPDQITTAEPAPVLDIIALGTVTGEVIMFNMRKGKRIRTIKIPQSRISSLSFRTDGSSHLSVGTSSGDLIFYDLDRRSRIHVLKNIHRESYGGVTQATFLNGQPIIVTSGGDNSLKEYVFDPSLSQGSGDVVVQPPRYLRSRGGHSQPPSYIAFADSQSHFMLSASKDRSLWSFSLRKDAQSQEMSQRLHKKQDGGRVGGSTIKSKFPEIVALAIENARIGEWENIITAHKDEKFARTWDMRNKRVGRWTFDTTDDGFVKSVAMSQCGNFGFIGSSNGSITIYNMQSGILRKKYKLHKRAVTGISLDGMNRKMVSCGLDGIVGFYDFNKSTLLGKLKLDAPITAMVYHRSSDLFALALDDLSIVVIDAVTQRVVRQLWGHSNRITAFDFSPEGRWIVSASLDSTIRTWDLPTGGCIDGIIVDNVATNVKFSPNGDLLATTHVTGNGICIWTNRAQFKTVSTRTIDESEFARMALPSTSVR
Assay: pull-down; His6-Smt3-tagged Utp18 fragments (0.95 nmol) incubated with Utp21 1–684 (1.9 nmol) 2 h at 4°C, bound to Ni Sepharose beads; washed with 25 mM Tris-HCl pH 7.6, 500 mM NaCl, 10 mM imidazole; SDS-PAGE, Coomassie
Details: both partners purified

| Binder | binding result |
| --- | --- |
| B1 | binds |
| B2 | binds |
| B3 | binds |
